Data reported in the MegaScale stability set (Tsuboyama et al. 2023).

B1: 2M8U (parent)
chain: TKAQVIEAFKVFDRDGNGYVTVDYLRKVLNELGDMMPADEIEEMIYEADPQNSGYVQYETFVGMLFL
B2: EHEE_rd2_0601 (parent)
chain: TYTYKLTDEEASRRAEDEWRNRGYDVRVRNNNGTWEVEVR

Variants of: B1
Experiment: folding stability dG (cDNA display proteolysis); higher = more stable
Details: PBS, room temperature

Folding stability dG [kcal/mol], by site and new letter:
E59: Y 3.82
T60: A 3.63; C 3.43; D 3.42; E 3.61; F 3.32; H 3.66; I 3.58; K 3.72; L 3.72; M 3.44; P 3.52; Q 3.55; R 3.68; S 3.6; V 3.31; W 3.58; Y 3.43
F61: A 2.41; C 2.13; D 0.727; E 0.86; G 0.903; H 1.1; I 3.6; K 1.35; L 2.65; M 2.31; N 1.32; P 0.783; Q 1.17; R 1.29; S 1.33; T 1.87; V 3.46; W 2.62; Y 2.17
V62: A 3.15; C 2.48; D 1.28; E 1.66; F 2.15; G 1.93; H 1.7; I 3.29; K 1.97; L 2.76; M 2.67; N 1.68; P 1.22; Q 1.94; R 1.93; S 2.36; T 3; W 2.11; Y 2.11
G63: A 3.66; C 3.58; D 4.19; E 4.11; F 3.29; H 3.72; I 3.41; K 3.45; L 3.36; M 3.79; N 3.97; P 2.16; Q 3.47; R 3.54; S 3.63; T 3.77; V 3.42; W 3.31; Y 3.48
M64: A 3.21; C 3.37; D 3.23; E 3.29; F 3.34; G 3.04; H 3.69; I 3.15; K 4.14; L 3.74; N 3.83; P 2.66; Q 3.53; R 4.29; S 3.08; T 3.29; V 3.03; W 3.59; Y 3.25
L65: A 2.23; C 2.6; D 1.97; E 1.82; F 3.28; G 2.19; H 2.65; I 3.11; K 1.94; M 3.67; N 2.26; P 1.55; Q 1.84; R 2.22; S 1.7; T 1.96; V 2.72; W 3.25; Y 3.04
F66: A 2.62; C 2.86; D 2.96; E 2.56; G 2.57; H 2.67; I 2.84; K 2.73; L 2.59; M 2.88; N 2.92; P 2.87; Q 2.55; R 2.78; S 2.72; T 2.83; V 2.84; W 3.19; Y 2.71
L67: A 3.98; C 3.61; D 4.28; E 3.96; F 3.22; G 3.49; H 3.62; I 3.3; K 3.57; M 3.46; N 3.67; P 3.9; Q 3.8; R 3.81; S 3.6; T 3.3; V 3.28; W 3.08; Y 3.08

Variants of: B2
Experiment: as above
Details: PBS, room temperature

Folding stability dG [kcal/mol] of substitutions, site by site:
T1: A 1.41; D 0.915; E 0.815; F 1.73; G 1.37; H 1.44; I 1.73; K 1.28; L 1.37; M 1.33; N 1.19; P 1.15; Q 1.03; R 1.35; S 1.62; V 1.86; W 2.65; Y 1.81
Y2: A 0.941; D 0.375; E 0.682; F 1.76; G 0.413; H 1.37; I 1.69; K 1.33; L 1.41; M 1.46; N 0.674; P 0.083; Q 1.04; R 1.58; S 0.609; T 1.38; V 1.63; W 2.04
T3: A 0.556; C 2.36; D 0.044; E 0.117; F 1.37; G 0.036; H 0.873; I 1.92; K 1.13; L 1.46; M 1.18; N 0.532; P -0.035; Q 0.604; R 1.12; S 0.898; V 1.82; W 1.24; Y 1.36
Y4: A -0.411; C 1.16; D -0.109; E 0.419; F 1.94; G -0.985; H 0.191; I 1.58; K -0.308; L 1.36; M 1.14; N -0.767; P -0.228; Q 0.276; S -0.488; T -0.316; V 0.852; W 1.12
K5: A 1.38; D 0.851; E 1.31; F 2.34; G 0.688; H 1.74; I 2.2; L 1.84; M 1.72; N 1.38; P 0.658; Q 1.71; R 1.56; S 1.58; T 1.95; V 1.97; W 1.83; Y 2.64
L6: A 1.4; D 0.391; E 0.639; F 3.77; G 0.912; H 1.48; I 1.15; K -0.09; M 1.97; N 0.622; P -0.21; Q 0.88; R -0.655; S 1.23; T 1.8; V 2.08; W 1.14; Y 3.41
T7: A 1.94; C 2; D 1.81; E 1.85; F 1.91; G 1.69; H 1.69; I 1.62; K 1.79; L 1.82; M 1.78; N 1.62; P 2.05; Q 1.86; R 1.61; S 1.63; V 1.63; W 1.64; Y 2.02
D8: A 0.271; C 1.07; E 0.662; F 0.427; G 0.808; H 0.365; I 0.306; K -0.424; L 0.261; M 0.146; N 1.47; Q 0.142; R -0.434; S 1.9; T 1.74; V -0.022; W 0.339; Y 0.298
E9: A 1.12; D 0.289; F 1.29; G 0.631; H 0.807; I 0.934; K 0.834; L 1.14; M 0.936; N 0.05; P 0.822; Q 1.07; R 0.802; S 0.61; T 0.198; V 0.885; W 1.26; Y 1.58
E10: A 1.75; C 1.88; D 1.38; F 1.2; G 1.1; H 1.09; I 1.3; K 1.19; L 1.34; M 1.41; N 1.12; P 1.02; Q 1.41; R 1.06; S 1.22; T 1.23; V 1.27; W 1.28; Y 1.29
